Test results reported in US20060083685 (published 2006).
Square brackets hold non-standard residues; d marks the D form. Ends that are not written are not given here.

Columns and labels:
[1] = target: T1, mu opioid receptor (rat, UniProt P33535); test: competition, radioligand, 25C
T1 chain: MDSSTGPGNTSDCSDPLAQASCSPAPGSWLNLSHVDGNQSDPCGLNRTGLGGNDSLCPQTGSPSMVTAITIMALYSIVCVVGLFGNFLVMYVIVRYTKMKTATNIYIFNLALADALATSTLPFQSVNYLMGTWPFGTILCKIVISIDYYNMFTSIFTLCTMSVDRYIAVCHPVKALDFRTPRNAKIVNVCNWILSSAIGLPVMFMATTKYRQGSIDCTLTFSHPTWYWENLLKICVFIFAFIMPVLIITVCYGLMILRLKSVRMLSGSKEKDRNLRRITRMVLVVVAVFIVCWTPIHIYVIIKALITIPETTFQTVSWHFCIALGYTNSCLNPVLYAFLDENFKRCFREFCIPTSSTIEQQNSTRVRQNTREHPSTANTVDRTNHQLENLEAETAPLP

[2] = target: T2, delta opioid receptor (rat, UniProt P33533); test: competition, radioligand, 25C
T2 chain: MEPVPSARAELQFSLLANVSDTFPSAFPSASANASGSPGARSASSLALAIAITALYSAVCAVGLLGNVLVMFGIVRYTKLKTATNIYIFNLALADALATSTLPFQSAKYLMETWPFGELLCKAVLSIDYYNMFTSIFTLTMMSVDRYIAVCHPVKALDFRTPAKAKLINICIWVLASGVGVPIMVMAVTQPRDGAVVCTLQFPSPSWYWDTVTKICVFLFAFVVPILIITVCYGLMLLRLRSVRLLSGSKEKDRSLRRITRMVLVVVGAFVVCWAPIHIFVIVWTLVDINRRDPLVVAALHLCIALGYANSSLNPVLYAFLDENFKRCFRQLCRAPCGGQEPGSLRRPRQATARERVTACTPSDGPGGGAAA

Binder | binding result [1] | binding result [2]
YC[dF]G-NH2 (also: rhenium complex) [Tyr-Cys-D-Phe-Gly-NH2] | no binding | no binding
YG[dF]C-NH2 (also: rhenium complex) [Tyr-Gly-D-Phe-Cys-NH2] | no binding | no binding
